Laboratory results published in US20240425882.

Target: T1, microtubule-associated protein EB2 (endogenous, mouse brain), Q8R001
T1 chain: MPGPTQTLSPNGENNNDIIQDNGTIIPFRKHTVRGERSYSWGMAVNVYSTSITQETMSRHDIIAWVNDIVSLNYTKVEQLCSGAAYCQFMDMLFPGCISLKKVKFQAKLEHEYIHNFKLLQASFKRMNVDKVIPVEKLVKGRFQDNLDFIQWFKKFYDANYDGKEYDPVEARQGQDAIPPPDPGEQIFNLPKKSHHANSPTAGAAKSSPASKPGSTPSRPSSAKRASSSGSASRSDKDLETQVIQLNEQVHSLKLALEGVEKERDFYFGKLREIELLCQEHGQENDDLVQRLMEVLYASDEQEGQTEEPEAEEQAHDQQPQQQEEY

B1: human CDKL5, isoform 4 (protein)
chain: MKIPNIGNVMNKFEILGVVGEGAYGVVLKCRHKETHEIVAIKKFKDSEENEEVKETTLRELKMLRTLKQENIVELKEAFRRRGKLYLVFEYVEKNMLELLEEMPNGVPPEKVKSYIYQLIKAIHWCHKNDIVHRDIKPENLLISHNDVLKLCDFGFARNLSEGNNANYTEYVATRWYRSPELLLGAPYGKSVDMWSVGCILGELSDGQPLFPGESEIDQLFTIQKVLGPLPSEQMKLFYSNPRFHGLRFPAVNHPQSLERRYLGILNSVLLDLMKNLLKLDPADRYLTEQCLNHPTFQTQRLLDRSPSRNQAGKSTALQSHHRSNSKDIQNLSVGLPRADEGLPANESFLNGNLAGASLSPLHTKTYQASSQPGSTSKDLTNNNIPHLLSPKEAKSKTEFDFNIDPKPSEGPGTKYLKSNSRSQQNRHSFMESSQSKAGTLQPNEKQSRHSYIDTIPQSSRSPSYRTKAKSHGALSDSKSVSNLSEARAQIAEPSTSRYFPSSCLDLNSPTSPTPTRHSDTRTLLSPSGRNNRNEGTLDSRRTTTRHSKTMEELKLPEHMDSSHSHSLSAPHESFSYGLGYTSPFSSQQRPHRHSMYVTRDKVRAKGLDGSLSIGQGMAARANSLQLLSPQPGEQLPPEMTVARSSVKETSREGTSSFHTRQKSEGGVYHDPHSDDGTAPKENRHLYNDPVPRRVGSFYRVPSPRPDNSFHENNVSTRVSSLPSESSSGTNHSKRQPAFDPWKSPENISHSEQLKEKEKQGFFRSMKKKKKKSQTTDSTNGENPSIKKSLFPLFNSKNHLKHSSSLKKLPVVTPPMVPNSDSPDLLTLQKSIHSASTPSSRPKEWRPEKISDLQTQSQPLKSLRKLLHLSSASNHPASSDPRFQPLTAQQTKNSFSEIRIHPLSQASGGSSNIRQEPAPKGRPALQLPGQMDPGWHVSSVTRSATEGPSYSEQLGAKSGPNGHPYNRTNRSRMPNLNDLKETAL
  EB2 phosphorylation levels (Western blot, Cdkl5-ko mouse brain): by isoforms three or 4 slightly lower compared to isoform 1

B2: human CDKL5, isoform 3 (protein)
chain: MKIPNIGNVMNKFEILGVVGEGAYGVVLKCRHKETHEIVAIKKFKDSEENEEVKETTLRELKMLRTLKQENIVELKEAFRRRGKLYLVFEYVEKNMLELLEEMPNGVPPEKVKSYIYQLIKAIHWCHKNDIVHRDIKPENLLISHNDVLKLCDFGFARNLSEGNNANYTEYVATRWYRSPELLLGAPYGKSVDMWSVGCILGELSDGQPLFPGESEIDQLFTIQKVLGPLPSEQMKLFYSNPRFHGLRFPAVNHPQSLERRYLGILNSVLLDLMKNLLKLDPADRYLTEQCLNHPTFQTQRLLDRSPSRNQAGKSTALQSHHRSNSKDIQNLSVGLPRADEGLPANESFLNGNLAGASLSPLHTKTYQASSQPGSTSKDLTNNNIPHLLSPKEAKSKTEFDFNIDPKPSEGPGTKYLKSNSRSQQNRHSFMESSQSKAGTLQPNEKQSRHSYIDTIPQSSRSPSYRTKAKSHGALSDSKSVSNLSEARAQIAEPSTSRYFPSSCLDLNSPTSPTPTRHSDTRTLLSPSGRNNRNEGTLDSRRTTTRHSKTMEELKLPEHMDSSHSHSLSAPHESFSYGLGYTSPFSSQQRPHRHSMYVTRDKVRAKGLDGSLSIGQGMAARANSLQLLSPQPGEQLPPEMTVARSSVKETSREGTSSFHTRQKSEGGVYHDPHSDDGTAPKENRHLYNDPVPRRVGSFYRVPSPRPDNSFHENNVSTRVSSLPSESSSGTNHSKRQPAFDPWKSPENISHSEQLKEKEKQGFFRSMKKKKKKSQTVPNSDSPDLLTLQKSIHSASTPSSRPKEWRPEKISDLQTQSQPLKSLRKLLHLSSASNHPASSDPRFQPLTAQQTKNSFSEIRIHPLSQASGGSSNIRQEPAPKGRPALQLPGQMDPGWHVSSVTRSATEGPSYSEQLGAKSGPNGHPYNRTNRSRMPNLNDLKETAL
  EB2 phosphorylation levels (Western blot, Cdkl5-ko mouse brain): by isoforms three or 4 slightly lower compared to isoform 1

B3: human cyclin-dependent kinase-like 5 (CDKL5), isoform 1 (protein)
chain: MKIPNIGNVMNKFEILGVVGEGAYGVVLKCRHKETHEIVAIKKFKDSEENEEVKETTLRELKMLRTLKQENIVELKEAFRRRGKLYLVFEYVEKNMLELLEEMPNGVPPEKVKSYIYQLIKAIHWCHKNDIVHRDIKPENLLISHNDVLKLCDFGFARNLSEGNNANYTEYVATRWYRSPELLLGAPYGKSVDMWSVGCILGELSDGQPLFPGESEIDQLFTIQKVLGPLPSEQMKLFYSNPRFHGLRFPAVNHPQSLERRYLGILNSVLLDLMKNLLKLDPADRYLTEQCLNHPTFQTQRLLDRSPSRSAKRKPYHVESSTLSNRNQAGKSTALQSHHRSNSKDIQNLSVGLPRADEGLPANESFLNGNLAGASLSPLHTKTYQASSQPGSTSKDLTNNNIPHLLSPKEAKSKTEFDFNIDPKPSEGPGTKYLKSNSRSQQNRHSFMESSQSKAGTLQPNEKQSRHSYIDTIPQSSRSPSYRTKAKSHGALSDSKSVSNLSEARAQIAEPSTSRYFPSSCLDLNSPTSPTPTRHSDTRTLLSPSGRNNRNEGTLDSRRTTTRHSKTMEELKLPEHMDSSHSHSLSAPHESFSYGLGYTSPFSSQQRPHRHSMYVTRDKVRAKGLDGSLSIGQGMAARANSLQLLSPQPGEQLPPEMTVARSSVKETSREGTSSFHTRQKSEGGVYHDPHSDDGTAPKENRHLYNDPVPRRVGSFYRVPSPRPDNSFHENNVSTRVSSLPSESSSGTNHSKRQPAFDPWKSPENISHSEQLKEKEKQGFFRSMKKKKKKSQTVPNSDSPDLLTLQKSIHSASTPSSRPKEWRPEKISDLQTQSQPLKSLRKLLHLSSASNHPASSDPRFQPLTAQQTKNSFSEIRIHPLSQASGGSSNIRQEPAPKGRPALQLPGQMDPGWHVSSVTRSATEGPSYSEQLGAKSGPNGHPYNRTNRSRMPNLNDLKETAL
  EB2 phosphorylation (Cdkl5(D471fs) mouse brain): showed robust hCDKL5 protein expression and EB2 phosphorylation 3 months later
  EB2 phosphorylation (Cdkl5(R59X) mouse brain): showed robust hCDKL5 protein expression and EB2 phosphorylation 3 months later
  ability to phosphorylate EB2 (pS222 EB2 Western blot, mouse brain): CDKL5 was fully active, as determined by its ability to phosphorylate its endogenous target EB2 protein
  kinase activity, blotting for phosphorylated EB2 (Cdkl5-ko mouse brain, 3 months after AAV): human CDKL5 showed robust kinase activity when blotting for phosphorylated EB2 protein
  substrate phosphorylation by CDKL5 (phospho-EB2 levels, pS222/total EB2, Western blot, brain): the observed reduction in substrate phosphorylation by CDKL5 (as determined by phospho-EB2 levels) ... was restored to wild type levels

B4: human CDKL5, isoform 2 (protein)
chain: MKIPNIGNVMNKFEILGVVGEGAYGVVLKCRHKETHEIVAIKKFKDSEENEEVKETTLRELKMLRTLKQENIVELKEAFRRRGKLYLVFEYVEKNMLELLEEMPNGVPPEKVKSYIYQLIKAIHWCHKNDIVHRDIKPENLLISHNDVLKLCDFGFARNLSEGNNANYTEYVATRWYRSPELLLGAPYGKSVDMWSVGCILGELSDGQPLFPGESEIDQLFTIQKVLGPLPSEQMKLFYSNPRFHGLRFPAVNHPQSLERRYLGILNSVLLDLMKNLLKLDPADRYLTEQCLNHPTFQTQRLLDRSPSRSAKRKPYHVESSTLSNRNQAGKSTALQSHHRSNSKDIQNLSVGLPRADEGLPANESFLNGNLAGASLSPLHTKTYQASSQPGSTSKDLTNNNIPHLLSPKEAKSKTEFDFNIDPKPSEGPGTKYLKSNSRSQQNRHSFMESSQSKAGTLQPNEKQSRHSYIDTIPQSSRSPSYRTKAKSHGALSDSKSVSNLSEARAQIAEPSTSRYFPSSCLDLNSPTSPTPTRHSDTRTLLSPSGRNNRNEGTLDSRRTTTRHSKTMEELKLPEHMDSSHSHSLSAPHESFSYGLGYTSPFSSQQRPHRHSMYVTRDKVRAKGLDGSLSIGQGMAARANSLQLLSPQPGEQLPPEMTVARSSVKETSREGTSSFHTRQKSEGGVYHDPHSDDGTAPKENRHLYNDPVPRRVGSFYRVPSPRPDNSFHENNVSTRVSSLPSESSSGTNHSKRQPAFDPWKSPENISHSEQLKEKEKQGFFRSMKKKKKKSQTTDSTNGENPSIKKSLFPLFNSKNHLKHSSSLKKLPVVTPPMVPNSDSPDLLTLQKSIHSASTPSSRPKEWRPEKISDLQTQSQPLKSLRKLLHLSSASNHPASSDPRFQPLTAQQTKNSFSEIRIHPLSQASGGSSNIRQEPAPKGRPALQLPGQMDPGWHVSSVTRSATEGPSYSEQLGAKSGPNGHPYNRTNRSRMPNLNDLKETAL
  EB2 phosphorylation levels (Western blot, Cdkl5-ko mouse brain): EB2 phosphorylation levels generated by isoform 2 were slightly higher ... compared to isoform 1
